The values that follow come from patent US20260097129A1 (KOOKMIN UNIVERSITY INDUSTRY ACADEMY COOPERATION FOUNDATION, published 2026).

The assay addresses GRP94 on human CRC cells (HCT116, LoVo, HT29, HCT8) (human, UniProt P14625 22-803). Briefly: cell-based or functional assay.

Sequence of GRP94 on human CRC cells (HCT116, LoVo, HT29, HCT8) (P14625 22-803): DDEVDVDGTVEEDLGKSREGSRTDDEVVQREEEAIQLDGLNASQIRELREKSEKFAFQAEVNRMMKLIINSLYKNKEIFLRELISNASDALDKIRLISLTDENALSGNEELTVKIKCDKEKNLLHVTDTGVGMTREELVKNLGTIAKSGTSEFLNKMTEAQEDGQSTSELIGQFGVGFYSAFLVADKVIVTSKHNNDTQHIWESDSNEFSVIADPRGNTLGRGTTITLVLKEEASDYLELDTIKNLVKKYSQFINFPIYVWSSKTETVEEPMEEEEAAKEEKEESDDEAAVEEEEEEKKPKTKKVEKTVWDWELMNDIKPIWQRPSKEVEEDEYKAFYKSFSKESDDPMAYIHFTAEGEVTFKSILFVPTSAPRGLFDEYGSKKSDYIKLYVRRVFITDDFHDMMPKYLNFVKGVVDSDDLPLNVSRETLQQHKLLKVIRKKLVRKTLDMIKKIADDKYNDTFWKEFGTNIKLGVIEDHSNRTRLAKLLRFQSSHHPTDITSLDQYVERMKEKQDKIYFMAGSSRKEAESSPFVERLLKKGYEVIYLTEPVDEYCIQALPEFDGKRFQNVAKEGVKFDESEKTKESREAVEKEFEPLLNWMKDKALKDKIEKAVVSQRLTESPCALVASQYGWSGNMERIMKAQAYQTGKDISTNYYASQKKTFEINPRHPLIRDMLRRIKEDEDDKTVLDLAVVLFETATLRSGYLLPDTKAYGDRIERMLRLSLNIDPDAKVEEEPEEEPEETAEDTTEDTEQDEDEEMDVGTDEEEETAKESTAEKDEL

B1: K101.1-DM1 (antibody, V domains shown)
VH: EVQLLESGGGLVQPGGSLRLSCAASGFTFSNYSMSWVRQAPGKGLEWVSGIYYGSGNKYYADSVKGRFTISRDNSKNTLYLQMNSLRAEDTAVYYCAKNLASFDYWGQGTLVTVSS
VL: QSVLTQPPSASGTPGQRVTISCSGSSSNIGSNSVNWYQQLPGTAPKLLIYSNSHRPSGVPDRFSGSKSGTSASLAISGLRSEDEADYYCGTWDSSLSGYVFGGGTKLTVL
modifications: SMCC-DM1 conjugated to lysine residues of the antibody (positions not stated)
Consider B1, for which the “IC50 of cell viability (CCK-8), HCT8 cells” value worked out at 78.8 nM; the “IC50 of cell viability (CCK-8), HCT116 cells” value was 34.9 nM; the “IC50 of cell viability (CCK-8), HT29 cells” value stood at 77.7 nM; the “IC50 of cell viability (CCK-8), LoVo cells” value was found to be 52.5 nM.

B2: K101.3-DM1 (antibody, V domains shown)
VH: EVQLLESGGGLVQPGGSLRLSCAASGFTFSGYAMSWVRQAPGKGLEWVSAISHGGSSKYYADSVKGRFTISRDNSKNTLYLQMNSLRAEDTAVYYCAKDLLSPLQSIGSYDDAMDVWGQGTLVTVSS
VL: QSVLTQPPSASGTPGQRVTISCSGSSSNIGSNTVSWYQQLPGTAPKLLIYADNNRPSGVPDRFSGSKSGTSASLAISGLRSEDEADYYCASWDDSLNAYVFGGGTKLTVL
modifications: SMCC-DM1 conjugated to lysine residues of the antibody (positions not stated)
As to B2, the “IC50 of cell viability (CCK-8), HCT8 cells” value turned out to be 44.9 nM; the “IC50 of cell viability (CCK-8), HCT116 cells” value came out at 57.8 nM; the “IC50 of cell viability (CCK-8), HT29 cells” value worked out at 48.3 nM; the “IC50 of cell viability (CCK-8), LoVo cells” value amounted to 35.5 nM.
